From US7687614 (University of California, dated 2010) come the findings set out here.

This data set concerns the molecule itself. Description: SDS-PAGE not boiled, fluorescence imaging of the gel.

B1: tdimer2(12) (tandem dimer of dimer2 with the 12 residue linker) (other)
chain: MRGSHHHHHHGMASMTGGQQMGRDLYDDDDKDPMVASSEDVIKEFMRFKVRMEGSVNGHEFEIEGEGEGRPYEGTQTAKLKVTKGGPLPFAWDILSPQFQYGSKAYVKHPADIPDYKKLSFPEGFKWERVMNFEDGGVVTVTQDSSLQDGTLIYKVKFRGTNFPPDGPVMQKKTMGWEASTERLYPRDGVLKGEIHQALKLKDGGHYLVEFKTIYMAKKPVQLPGYYYVDTKLDITSHNEDYTIVEQYERSEGRHHLFLGHGTGSTGSGSSMVASSEDVIKEFMRFKVRMEGSVNGHEFEIEGEGEGRPYEGTQTAKLKVTKGGPLPFAWDILSPQFQYGSKAYVKHPADIPDYKKLSFPEGFKWERVMNFEDGGVVTVTQDSSLQDGTLIYKVKFRGTNFPPDGPVMQKKTMGWEASTERLYPRDGVLKGEIHQALKLKDGGHYLVEFKTIYMAKKPVQLPGYYYVDTKLDITSHNEDYTIVEQYERSEGRHHLFL
notes: Exact junctions (SphI/SacI sites, start Met of second copy) are not spelled out
B1: the binding result is recorded as “binds”.
